# Results from EP0871495B1.
# Biological target: MHC class II antigen on the Raji B cell line
# Experiment: cell-based or functional assay
substance,measurement,value
CD4:ζ chimera (CD4 extracellular domain fused to human T cell receptor ζ chain),cytolysis (51Cr release) of Raji (MHC class II+) cells by CTL expressing CD4:ζ,5 % cytolysis
